Consider four substances from patent publication US20250340598A1.

“And” between values parts separate entries of the source, which are not always exact repeats. Identical values can stand only once.

In the assay with CAP256SU (HIV-1), CAP256 VRC26 UCA (antibody) showed an IC50, neutralization of 35 µg/mL. For the same substance, the fold reduction of neutralization reactivity in the assay with CAP256SU_UCA_OPT_3.0 is 3 fold and 4 fold.
Turning to CH01 UCA (antibody), the IC50, neutralization in the assay with CAP256SU_UCA_OPT is 1.92 µg/mL.
PCT64 LMCA (antibody): the 50% neutralization, pseudovirus neutralization with CH505 UCA_OPT_2+H130D is 100 µg/mL. In the assay with CH505 UCA_OPT2+N332, this substance gave an IC50, pseudovirus neutralization of 105 µg/mL.
In the assay with CH505_V2UCAOPT_v3.0, PG16 RUA (antibody) gave a fold improvement of neutralization sensitivity of 100 fold. For the same substance, the fold enhancement of neutralization sensitivity is 10 fold with CAM13K+K169R (SIVcpz) and 50 fold with CAM13RRK.
